Test results reported in patent US10465005B2, “JAML specific binding agents, antibodies, and uses related thereto” (Emory University, priority 2011, dated 2019).
Entries after “also recorded” stand apart in the source; their conditions may differ.

Legend:
[1] = test system: JAML shedding from differentiated HL60; assay: JAML shedding with protease inhibitors, differentiated HL60; type: cell-based, human; details: PMA 200 nM; cocktail 1:50, AEBSF 1 mM, PMSF 2 mM, Phenanthroline 5 mM, NEM 6 mM; sandwich ELISA; FIG. 6A
Experimental: JAML shedding from differentiated HL60 was assayed as described in the legend for FIG. 5. Protease inhibitors were added to cell suspensions during incubation in H^+ with or without PMA. Inhibitors used were Sigma inhibitor cocktail (Cat #P8340) used at 1:50 dilution, AEBSF 1 mM, PMSF 2 mM, Phenanthroline 5 mM and NEM 6 mM.
To explore the mechanisms for release of JAML from the surface of differentiated HL60 and PLB-985 cells during activation with PMA, PMA was added to cells in the presence or absence of a variety of protease inhibitors. The protease inhibitor cocktail from Sigma that targets serine proteases was used as well as cysteine proteases and several independent inhibitors. […] (Le Gall et al., 2003, JBC 278 No46 45255-45268).
Cells were suspended at 100×10^6 cells/ml in 50 ml centrifuge tubes. PMA was added at a final concentration of 200 nM and tubes incubated at 37° C. of 30 min. Supernatants were collected by centrifugation. To eliminate the presence of macroparticles in the supernatants, ultracentrifugation was performed in a table-top microcentrifuge (Beckman TL-100) at 100,000 g for 30 minutes. The “cleared” supernatants were assayed for the presence of soluble JAML.
Purified antibody DW100 (100 μl/well of 10 μg/ml dilution) was coated onto a high binding 96 well plate (Immulon II) overnight at 4° C. or 1½ hr at 37° C. After washing, 200 μl of 5% blocking solution (Roche) was added to each well for 1 hr at room temperature (RT). After washing, 100 μl supernatant samples in triplicates were added to the wells as well as serial dilutions of purified sJAML-His and incubated for 1 hr RT. After washing, 100 μl biotinylated DW216 antibodies was added at 10 μg/ml. This was followed after a wash by Streptavidin-HRP diluted at 1:4000. The wells were washed again and after addition of ABTS substrate, wells were analyzed using a microplate reader at 405 nm wavelength.

JAML binding with CAR = molecular target: T1, JAML binding with CAR (Homo sapiens, UniProt Q86YT9); assay: CAR binding assay (ELISA, CAR-GST on immobilized sJAML-His); details: CAR-GST 10 μg/ml on immobilized sJAML-His preincubated with antibody; FIG. 1C
T1 construct: soluble JAMLD1D2 was truncated and tagged after residue Leucine259; made in house; host or cells: HEK293T (sJAML-His)
T1 sequence (Q86YT9 20-259): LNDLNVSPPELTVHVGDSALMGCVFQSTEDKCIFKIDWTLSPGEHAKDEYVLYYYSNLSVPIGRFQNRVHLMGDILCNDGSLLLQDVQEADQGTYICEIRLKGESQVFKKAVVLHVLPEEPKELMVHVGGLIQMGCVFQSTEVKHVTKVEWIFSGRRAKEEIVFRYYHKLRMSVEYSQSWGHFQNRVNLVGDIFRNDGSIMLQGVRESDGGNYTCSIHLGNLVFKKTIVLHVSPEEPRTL
Experimental: FIG. 1C. CAR binding assay: sJAML-His was coated in Immulon II microtiter microtiter wells overnight, at 4° C. Microtiter wells were washed and blocked and 100 μl antibody solutions were added to wells for 1 hour RT. After washing, CAR-GST was added at 10 μg/ml for 1 hour RT, washed and the assay was developed with HRP conjugated goat anti GST followed by ABTS and OD measurement at 405 nm.
Because certain antibodies recognize the membrane distal domain of JAML, their ability to inhibit binding to CAR was tested. By ELISA, the levels of soluble CAR-GST bound to immobilized sJAML-His preincubated with anti JAML antibodies was measured. […] Thus, these antibodies recognize three different epitopes on JAML and that both DW100 and DW55 bind epitopes close to the JAML binding site. Using a cell aggregation assay, the possibility that DW100 could inhibit the binding of JAML to CAR expressed on the surface of cells was examined. […] This again confirms previously described JAML binding to CAR, as well as the specificity of DW100 (blocking) and DW216 (non-blocking) Abs to JAML.

[2] = molecular target: T2, CHO-JAML-His and CHO JAML-6xMyc (Homo sapiens, UniProt Q86YT9); assay: FACS staining of stably transfected CHO-JAML cell lines; type: binding; details: FIG. 1A
T2 construct: 6xMyc (cell line CHO JAML-6xMyc); expressed in transfected cells
T2 sequence (Q86YT9 20-394): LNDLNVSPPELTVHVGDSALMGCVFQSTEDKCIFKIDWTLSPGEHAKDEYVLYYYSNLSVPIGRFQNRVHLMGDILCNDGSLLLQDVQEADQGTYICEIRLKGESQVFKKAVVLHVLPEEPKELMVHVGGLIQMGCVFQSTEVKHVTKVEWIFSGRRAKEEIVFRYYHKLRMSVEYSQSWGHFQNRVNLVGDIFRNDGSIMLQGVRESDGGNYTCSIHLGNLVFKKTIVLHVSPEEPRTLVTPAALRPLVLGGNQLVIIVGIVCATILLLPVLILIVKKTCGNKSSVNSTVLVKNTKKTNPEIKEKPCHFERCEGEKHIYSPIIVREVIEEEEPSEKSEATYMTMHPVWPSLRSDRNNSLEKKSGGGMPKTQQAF
Source text: BALB/c mice were immunized with recombinant soluble fragment of JAML.D1D2 tagged with 10 His residues at the C-terminus (sJAML-His), generated in H293T cells and purified by Nickel chromatography. After the 4th boost, mice were given a final immunization and, 3 days later, spleen cells harvested and fused to the myeloma cell line P3U1. Hybridomas were selected in HAT medium and supernatants of clones were subjected to screening first to immobilized, soluble JAML and followed by staining of CHO-JAML stable transfectants. Three hybridomas were selected and antibodies were purified from ascites. FACS staining profiles of mAbs using two different, stably transfected CHO-JAML cell lines, CHO-JAML-His and CHO JAML-6xMyc, both membrane bound and tagged at the C-terminus with either 10-His or 6xMyc. Control antibody is 9E10 anti Myc.
These hybridomas were further tested for reactivity against tagged, full-length JAML expressed on the surface of cultured cells. CHO-JAML-6XMyc transfectants were aliquoted and pelleted into round bottom 96 well plates. 100 μl hybridoma supernatants were added for 1 hr at 4° C. Cells were washed and positive wells were identified by FACS analysis using Goat anti Mouse-AlexaFluor 488. Cells from positive wells were cloned by limiting dilution at one cell per well and expanded first in DMEM-10% FBS containing HAT then in medium containing HT (ATCC) and later DMEM, 10% FBS. The cloned cells of interest were sent to Harlan Laboratories (Indianapolis, Ind.) for production of ascites. Antibodies were purified from ascitic fluid using proteinA-Sepharose (GE Healthcare) followed by dialysis against PBS. Aliquots were frozen at −80° C. Ig subclass of each antibody was determined by using the IsoStrip Mouse Monoclonal Antibody Isotyping Kit (Roche Applied Science). […]
Cells suspensions of adherent cells were prepared by trypsinization with Trypsin-EDTA (Sigma). […] After final washes, cells were analyzed using FACS Calibur. […] All samples were stained for JAML (DW100 mAb) and CD11b/CD18 (CBRM 1/29), and only CD11b/CD18 positive cells (PMNs) were analyzed for JAML expression.

[3] = test system: T84 epithelial monolayers; assay: Scratch wound closure of epithelial monolayers; type: cell-based, human; details: T84; mAb 30 μg/ml; FIG. 10A,B
Experimental: T84 epithelial monolayers grown to confluence were wounded by introduction of a single linear scratch wound using a 20-μl plastic pipette tip. Wound closure was monitored over 72 h in the absence or presence of PMN or sJAML. The scale bar is 10 μm.
Whether JAML binding to CAR would affect epithelial wound restitution was investigated. […] If soluble JAML interactions with CAR play a role, the effect could be reversed with the addition of blocking DW100 mAb.
Cell grown in 24-well tissue culture plates received one linear wound using a 20-μl plastic pipette tip attached to low suction. Wounded monolayers were washed once with PBS to remove detached cells and debris, and incubated with the appropriate stimulus added to the medium. The rate of migration was measured by determining the wound area immediately after wounding (t=0) and at the indicated time points. The data are presented as the area of the wound at each time point normalized to t=0. The experiments were carried out in triplicates per condition, and the data shown are representative of 4 independent experiments.

Row | Molecule | inhibition of PMA-induced JAML shedding, differentiated HL60 [1] | inhibition of CAR binding to JAML (JAML binding with CAR) | FACS staining of CHO-JAML transfectant lines [2] | reversal of PMN or sJAML inhibition of wound closure [3]
1 | CCN1C(=O)C=CC1=O [N-Ethyl maleimide, N-Ethylmaleimide] | No decrease in JAML shedding |  |  | 
2 | O=S(=O)(F)Cc1ccccc1 [PMSF, Phenylmethylsulfonyl fluoride] | showed some inhibition |  |  | 
3 | NCCc1ccc(S(=O)(=O)F)cc1 [AEBSF] | No decrease in JAML shedding |  |  | 
4 | DW55: monoclonal anti-human JAML antibody (IgG2b,κ); VH SEQ ID NO:20, VL SEQ ID NO:23 (antibody, V domains shown) VH: CDVQLVESGGGLVQPGGSRKLSCAASGFTFSDYGMAWVRQAPGKGPEWVAFISNLAYSIYYSDTVTGRFTISRENAKNTLYLEMSSLRSEDTAMYYCARGDYSGGMMDYWGQGT VL: VLTSQPASLAVSLGQRATISYRASKSVSTSGYSYMHWNQQKPGQPPRLLIYLVSNLESGVPARFSGSGSGTDFTLNIHPVEEEDAATYYCQHIRELTRSEGGPSWK |  | inhibit human JAML binding with CAR; also recorded: partially inhibited binding; also recorded: partly inhibitory | stained both transfectant lines equally well | 
5 | DW216: monoclonal anti-human JAML antibody (IgG1,κ), non-blocking; VH SEQ ID NO:21, VL SEQ ID NO:24 (antibody, V domains shown) VH: DVQLVESGPGLVKPSQSLSLTCTVTGYSITSDYAWNWIRQFPGNKLEWMGYISSSGNSNYNPSLKSRISITRDTSKNQFFLQLNSVTTEDTATYYCAGATGYSMDYWGQGTTLTVK VL: VLTQSPAIMSASLGERVTMTCTASSSVSSSYLHWYQQKPGSSPKLWIYSTSNLASGVPARFSGSGSGTSYSLTISSMEAEDAATYYCHQYHRSPFTFGSGTKLELK |  | did not inhibit at all; also recorded: whereas DW216 did not | stained both transfectant lines equally well | but not DW216 mAb (30 μg/ml) significantly improved wound restitution
